In the nanobody polyreactivity screen of Harvey et al. (2022):

Assay: yeast display, Sf9 membrane polyspecificity reagent, FACS + sequencing; frameworks hold sequencing errors
Summary of the method: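 Nanobodies came from a synthetic yeast display library in Saccharomyces cerevisiae BJ5465, induced with galactose for 36–48 hours and stained for 1 hour at 4 °C with 10% biotinylated, detergent-solubilized Sf9 membrane reagent. Cells were enriched on streptavidin microbeads and then FACS-sorted, with low and high (top ~1%) gates set on anti-HA fluorescence for expression and streptavidin fluorescence for reagent binding. Each polyreactivity label reflects the gate a clone came from. Genes were amplified by colony PCR, sequenced by MiSeq 2 × 250 and filtered by CDR length.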

| Sequence | polyreactivity (PSR sort gate) |
| --- | --- |
| QVQLVESGGGLVQAGGSLRFSCAASGTFYYYAMGWYRHAPGKERELVAAISYSGGRTYYADSVKGRFTISRDNAKNTVYLQMNSLKPEDTAVYYCNALYRKTPSYGADDYWGQGTQVTVSS | high polyreactivity |
| QVQLVESGGGLVQAGGSLRLSCAASGFIFRFNAMGWYRQAPGKERQLVAAISGSGGITYYADSVKGRFTISRDNAKNTVYLQMNSLKPEDTAVYYCAARPLFGWRGYNYWGQGTQVTVSS | high polyreactivity |
| QVQLVESGGGLVQAGGSLRLSCAASGRTFYNYAMGWYRQAPGKERELVAAITRGGSTYYADSVKGRFTISRDNAKNTVYLQMNSLKPEDTAVYYCNAVFPYEHEEYDYWGQGTQVTVSS | high polyreactivity |
| QVQLVESGGGLVQAGGSLRLSCAASGITFGYYAMGWSRQAPGKERELVAAISWSGGRTYYADSVKGRFTMSRDNAKNTVYLQMNSLKPEDTAVYYCAADYWYYRGGYPMDYWGQGTQVTVSS | high polyreactivity |
| QVQIVESGGGLVQAGGSLRLSCAASGFIFRYNVMGWYRQAPAKERELVAANSSSGSRTYYADSVKGRFTISRDNAKNTVYLQMNSLKPEDTAVYYCATQSWVRYGQPEFDYWGHGTQVTVSS | high polyreactivity |
| QVQLVESGGGLVQAGGSLRLSCAASGRIFSYYAMGWYRQAPGKERELVATINSGGSTNYADSVKRRFTISRDNAKNTVYLQMNSLKPEDTAVYYCAASPVWWSDYWGQGTQVTVSS | low polyreactivity |
| QDQLVESGGGLDQAGGSLRLSCAASGRTFRKYAMGWYSQAPGKERELVAAITTSGARTYYADSVKGRFTISRDNAKNTVYLQMNILKPDDTAVYYCNAVSPYDGIEFDYWGLGTQVTVSS | high polyreactivity |
| QVQLVESGGGLVQAGGSLRLSCAASGSIFYGNAMGWYRQAPGKERELVAAISKRGGSTYYADSVKGRFTISRDKAKNSVYLQMNSLKPEDTAVYYCAKATAGHTEYYYWGQGTQVTVSS | high polyreactivity |
| QVQLVDSGGGLVQAGGSLRLSCAASGSTSLKNAMGWSRQAPGKERELVAAISSGGSTYYADSVKGRFTISRDNAKNTVYLLMNSLKPEDTAVYYCAAKYLRGLGYWGQGTQVTVSS | high polyreactivity |
| QVQLVESGGGLVQAGGSLRLSCAASGFTFYSYAMGWYRQAPGKERELVAAISRSGGSTRYADSVKGRFTISRDNAKNTVYLQMNSLKPEDTAVYYCAARSWYPYRYSSLYYWGQGTQVTVSS | high polyreactivity |
| QVQLVESGGGLVQAGGSLRLSCAASGFIFVKYAMGWYRQAPGKERELVAAISWSGGTTYYSDSVKGRFTISRDNAKNTVYLKMNSLKPEDTAVYYCAAEYYTGYFKYDYWGQGTQVTVSS | high polyreactivity |
| QVQLVESGGGLVQAGGSLRLSCAASGRIFGSYAMGWYRQAPGKERELVAAITTVGITYYADSVKGRFTISRDNAKNTVYLQMNSLKPEDTADYYCAAEYFDYPYWYDYWGQGTQVTVSS | high polyreactivity |
| QVQLVESGGGLVQAGGSLRLSCAASGFIFNYYAMGWYRQAPGKEREFVAAITWRGGSTNYADSVKGRFTISRDNAKNTVYLQMNSLKPEDTAVYYCAAYSVWGGSYLALDYWGQGTQVTVSS | low polyreactivity |
| QVQLVESGGGLVQAGGSLSLSCAASGRTFSQYAMGWYRPAPGTERELVAAIDRTGDSTYYADSVKGRFTISRDNAKNTVYLQMNSLKPEDTAVYYCNRRYTRVRSRKGYDYWGQGTQVTVSS | high polyreactivity |
| QVQLVESGGGLVQAGGSIPLTCAASGRTLWGYAMGWYSQAPGKEREMVAAITSGGSTYYADSVKGRFTISRDNAKYYVYLQMNSLKPEDTAVDYCNAVTSIQTSYPSNWGMMDYWGQGSQVTVSS | low polyreactivity |
| QVQLVESGGGLVQAGGSLRLSCAASGRILKRNSMGWYRQAPGKERELVAAITSSGGSTYADSVKGRFTISRDNEKNTVYLQMNSLKPEDTAVYYCNAGYKRPWSHKYYWGQGTQVTVSS | low polyreactivity |
| QVQLVESGGGLVQEGGSLRLSCAASGRIFKPYVMGWYRQAPGKERELVAAISWSGGASTYYADSVKGRFTISRENAKNTVYLQMNSLKPEDTAVYYCNAAKRNRYDYWGQGTQVTVSS | low polyreactivity |
| QVQLVESGGGLVQAGGSLRLSCADSGRIFVRNAMGWYRPAPGKERELVADSTNGGSTNYADSVKGRFTISRDNAKNTVYLQRNSQKPEDTAVYYCAADTLGVYDGDYWGQGTQVTVSS | low polyreactivity |
| QVQHVESRGGLVQAGGSLRLSCAASGFTFSRNAMGRYRQAPGKESDLVAAIDSGGSTDYADSVKGRFTNSRDNAKNTVYLQMNSLKPADTAVYYCAKASSATRYVQLRQDYDYWGQGTKVTVSS | low polyreactivity |
| QVQLVESGGGLVQAGGSLRLSCAASGSTFVANTMGWYRQAPGKERELVATIRRSGGSTYYADSVKGRFTISRDNAKNTVYLQMNSLKPEDTAVYYCAKDSRWPSYRGMDYWGQGTQVTVSS | low polyreactivity |
| QVQLVESGGGLVQAGGSLRLSCAASGSTFYWYAMGWYRQAPGKERELVAAITSTGGSTYADSVKGRFTISRDNAKNTVYFQMNSLKPEDTAVYYWNVDTSSPSRRDYDYWGQGTQVTVSS | low polyreactivity |
| QVQLVESGGGLVQAGGSLRLSCAASGRIFRSNAMGWYRQAPGKERELVAVINSDDSTYYADSVKGRFTISRDNAKNTVYLQMNSLKPEDTAVYYCAAEPQYTRHMDSLGQGTQVTVSS | low polyreactivity |

| Sequence | polyreactivity (PSR sort gate) |
| --- | --- |
| QVQLVESGGGLVQAGGSLRLSCAASGSTFLNNAMGWSRQAPGEERELVAAISRRGGNTYYADSEKGRFTISRDNAKNTVSLHMNSLKPEDTAVYYCAADLVWTRYFGYAQDYYIEFDYWGQGTQVTVSS | high polyreactivity |
| QVQLVESVGGLVQAGGSLRLSCAASGRIFQYYAMGWYRQAPGKERELVAAITRSGGRTYYADSVKGRFTISRDNAKNTVYLQMNSLKPEDTAVYYCAARDWYYTMYYWGQGTQVTVSS | high polyreactivity |
| QVQLVESGGGLVQAGGSLRLSCAASGRTFEPNDMGWYRQAPGKERELVAAISSSDGSTYYADSVKGRFTISRDNAKNTVYLQMNSLKPEDTALYYCAADAGYLYDWPYNYYYWGQGTQVTVSS | low polyreactivity |
| QVQLVESGGGLVQAGGSLRLSCAASGIISIFNVMGWYRQAPGKERELVASITGRGGSTFYADSVKGRFTISRDNAKNTVYLQMNRLKPEDTAVYYCATDTGYTYPVTGLYDYWGQGTQVTVSS | low polyreactivity |
| QVQLVESGGGLVQAGGSLRLSCAASGSTFHRNTLGWYRQAPGKERELVAGISLRGVRTYYADSVKGRFTISRDNAKNSVYLQMNSLKPEDTAVYYCAALYYYGYDYWGQGTQVTVSS | high polyreactivity |
| QVQLVESGGGLVQAGGSLRLSCAASGSNFDYYTMGWYRQAPGKERELVAAISRSGGSTRYADSVKGRFTISRDNAKNTVYLQMNSLKPEDTGVSYCAAGARQGVYRGGDYWGQGTQVTVSS | low polyreactivity |
| QVQLVESGGGLVQAGGSLRLSCAASGRIFQYYVMGWYRQAPGKERELVARITYIGGGTYYADSVKGRFTMSRDNAKNTVYLQMNSLKPEDTAVYYWYARYPWREWEDDYWGQGTQVTVSS | low polyreactivity |
| QVQLVESGVGLVQAGGSLRLSCAATGSILSINGMGWYIPAPGKERELVATIDGSDGSTFYADSVKGRFTISRDNAKNTVFLQMNSLNPEDTEVYYCADENFWQTKEYDYWGQGTQVTVSS | low polyreactivity |
| QVQLVESGGGLVQAGGSLRLSCAASGSTYRWYAMGWYRQAPGKEREFVAAITWSGGRTYYADSVKGRFTISRDNAKNTVYLQMNSLKTEDTAVYYCNADDYGYSFNYWGQGTQVTVSS | high polyreactivity |
| QLQLVESGGGLVQAGGSLRLSCAAAGSTFRLYAMGWYRPAPGKERKLVAAISGRGDRTYYADSVKGRFTISRDNAKNAVYLQMISLKPEDTAVYSCAAKSGFIPYDYWGQGTQVTVSS | high polyreactivity |
| QVQLVESGGGLVQAGGSLRLSCAASGSTFTDNAMGWYRQAPGKETELVAAINGSGDITYYADSVKGRFTISRDYAKNTVYLQMKSLKPEDTAVYYCATRTQYKTWYGAYYYWGQGTQVTVSS | low polyreactivity |
| QVQLVESGGGLVQAGGSLRLSCADSGNTFYANAMGWYRQAPGKEREFVASITRSGGSTYYADSVKGRFTISRDNAKNTVYLQMNSLKPEVTAVYYCAADSWFKYDYWGQGTQVTVSS | low polyreactivity |
| QVQLVESGGGLVQAGGSLRLSCAASGRIFVSNAMGWYRQAPGKERELVACITWTSGSTYYADSVKGRFTISRDNAKNTVYLQMNSLKPEDTAVYYCAAEYWYGNAFDYWGQGTQVTVSS | low polyreactivity |
| QVQLVESGGGLVQAGGSLRVSCAASGRTFGVYTMGWYRLAPGKERELVAAITWGGGRTYYADSVKGRFTISRDNAKNTVYLHMNSLKPEDTAVYYRAARVRGQGSYHFGYWGQGTQVTVSS | high polyreactivity |
| QVQLVESGGGLVQAGGSLRISCAASGINFVTYAMGWYRKAPGKEREFVASINWITGNTYYADSVKGRFTISRDNAKNTVYLQMNSLKPEDTAVYYCATVDWSLYLGTPPSYYWGQGTQVTVSS | low polyreactivity |
| QVQLVESGGGLVQAGGSLRLSCAASGGTLQGNAMGWYRQAPGKERELVAAISSRGGRTYYADSVKGRFTISRDNAKNTVYLQMNSLKPEDTAVYYCAAVQKGDSTLLRTKGGYWGQGTQVTVSS | high polyreactivity |
| QVQLVESGGGLVQAGGSLRLSCAASGSTIPLYAMGWYRQAPGKERELVAAISRRGGRTYYADSVKGRFTISRDNAKNSVYLQMNSLKPEDTGVYYCAARYTRRHYDYWGQGTKVTVSS | high polyreactivity |
| QLQLVESGRGLVQAGGSLRLSCAASGRTFVYYPMGSYRQAPGKERELVASISSVGTTKYADSVKGRFTISRDNAKNTVYLQMNCLKPEDTAVYYCAAVPLSRNIFDSWGQGTQVSVSS | low polyreactivity |
| QVQLVESGGGIVQAGGSLRLSCAASGRIISGYVMGWYRQAPGKERELVAAITRSGGSTNYADSVKGRFTISRDNAKNTVYLQMNSLKPEDTAVYYCNAVGRYYRVANGNYDYWGQGTQVTVSS | high polyreactivity |
| QVQLVESGGGLVQAGGSLRLSCAASGSIFYLYAMGWYRQAPGKERELVATMSSSGGSTYYADSVKGRFTISRDNAKNTVYLQMISLKPEDTAVYYCNADYIYYGTTYEYWGQGTQVTVSS | low polyreactivity |
| QDQLVESGGGLVQAGGSLRLSCAGCAYIFGRYAMGWYRQAPGKEMELVAAITQRGGRTYYPDSVKGRFTISRDNAKNTVYLQMNSLKPEDTAVYYCAALLYFFLYDYWGQGTQVTVSS | low polyreactivity |
